Laboratory results taken from publication PMC8509813, “Effect of Structural Changes Induced by Deletion of ^54[sequence]^61 Sequence in αB-crystallin on Chaperone Function and Anti-Apoptotic Activity” (International Journal of Molecular Sciences, 2021).

Columns and labels:
[1] = biological target: luciferase (UniProt P08659 1-550 = luciferase); test: cell-based or functional assay
[2] = biological target: lysozyme (UniProt P00698 19-147); test: cell-based or functional assay
[3] = biological target: the molecule itself; test: SEC-MALS; peak 2 (crystallin) of the mixtures with citrate synthase at 0 min, before incubation; TSK G5000PWXL column, MALS and quasi-elastic light scattering; homo-oligomer of ~20 kDa subunits

lysozyme, sequence (P00698 19-147): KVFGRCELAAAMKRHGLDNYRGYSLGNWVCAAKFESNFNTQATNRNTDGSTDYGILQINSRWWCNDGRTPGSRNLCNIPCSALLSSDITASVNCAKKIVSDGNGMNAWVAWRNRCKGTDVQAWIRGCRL
luciferase, sequence (P08659 whole entry): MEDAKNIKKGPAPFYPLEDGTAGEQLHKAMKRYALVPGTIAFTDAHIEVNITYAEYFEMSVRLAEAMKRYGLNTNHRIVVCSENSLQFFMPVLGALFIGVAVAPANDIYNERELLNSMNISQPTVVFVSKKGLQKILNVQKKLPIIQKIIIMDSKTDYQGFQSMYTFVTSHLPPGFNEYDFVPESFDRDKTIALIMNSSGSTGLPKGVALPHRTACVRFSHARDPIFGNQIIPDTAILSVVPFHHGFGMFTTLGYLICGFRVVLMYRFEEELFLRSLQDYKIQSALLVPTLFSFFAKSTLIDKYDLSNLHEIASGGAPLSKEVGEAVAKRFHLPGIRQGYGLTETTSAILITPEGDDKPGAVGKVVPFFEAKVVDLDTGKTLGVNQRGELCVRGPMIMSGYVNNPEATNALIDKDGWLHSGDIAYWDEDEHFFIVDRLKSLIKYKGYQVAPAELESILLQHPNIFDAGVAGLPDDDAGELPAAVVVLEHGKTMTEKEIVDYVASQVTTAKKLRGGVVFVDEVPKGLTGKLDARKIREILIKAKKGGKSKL

Row | EC50: chaperone concentration that suppresses the aggregation of 1 µM luciferase (PBS, 37 °C, light scattering at 360 nm) by 50% [1] [µM] | EC50: chaperone concentration that suppresses the aggregation of 10 µM lysozyme (2 mM DTT, PBS, 37 °C, light scattering at 360 nm) by 50% [2] [µM] | Binder | binding result [3]
1 | 48 | 2.8 | wild-type αB-crystallin (natural protein, human, UniProt P02511 1-175, looked up, αB-crystallin, human, wild type; subunit of ~20 kDa that forms a homo-oligomer; also called αB-wt; WT protein; source: E. coli BL21(DE3)pLysS, purified (ammonium sulfate precipitation, gel filtration twice)) MDIAIHHPWIRRPFFPFHSPSRLFDQFFGEHLLESDLFPTSTSLSPFYLRPPSFLRAPSWFDTGLSEMRLEKDRFSVNLDVKHFSPEELKVKVLGDVIEVHGKHEERQDEHGFISREFHRKYRIPADVDPLTITSSLSSDGVLTVNGPRKQVSGPERTIPITREEKPAVTAAPKK | binds
2 | 9 | 1.8 | αB-crystallin with residues 54–61 deleted (natural protein, human, UniProt P02511 1-175, looked up, No tag is mentioned; 306 kDa by MALS; also called αBΔ54–61; deletion mutant; source: E. coli BL21(DE3)pLysS, purified (ammonium sulfate precipitation, gel filtration twice)) MDIAIHHPWIRRPFFPFHSPSRLFDQFFGEHLLESDLFPTSTSLSPFYLRPPSDTGLSEMRLEKDRFSVNLDVKHFSPEELKVKVLGDVIEVHGKHEERQDEHGFISREFHRKYRIPADVDPLTITSSLSSDGVLTVNGPRKQVSGPERTIPITREEKPAVTAAPKK | binds
